Assay results from US20240398767A1, “INHIBITORS OF THE MTDH-SND1 PROTEIN COMPLEX FOR CANCER THERAPY” (The Trustees of Princeton University, priority 2021, published 2024).

B4: SND1-NLuc (other)
chain: EQKLISEEDLVPTVQRGIIKMVLSGCAIIVRGQPRGGPPPERQINLSNIRAGNLARRAAATQPDAKDTPDEPWAFPAREFLRKKLIGKEVCFTIENKTPQGREYGMIYLGKDTNGENIAESLVAEGLATRREGMRANNPEQNRLSECEEQAKAAKKGMWSEGNGSHTIRDLKYTIENPRHFVDSHHQKPVNAIIEHVRDGSVVRALLLPDYYLVTVMLSGIKCPTFRREADGSETPEPFAAEAKFFTESRLLQRDVQIILESCHNQNILGTILHPNGNITELLLKEGFARCVDWSIAVYTRGAEKLRAAERFAKERRLRIWRDYVAPTANLDQKGGGSGGGSGGGSEDAKNIKKGPAPFYPLEDGTAGEQLHKAMKRYALVPGTIAFTDAHIEVNITYAEYFEMSVRLAEAMKRYGLNTNHRIVVCSENSLQFFMPVLGALFIGVAVAPANDIYNERELLNSMNISQPTVVFVSKKGLQKILNVQKKLPIIQKIIIMDSKTDYQGFQSMYTFVTSHLPPGFNEYDFVPESFDRDKTIALIMNSSGSTGLPKGVALPHRTACVRFSHARDPIFGNQIIPDTAILSVVPFHHGFGMFTTLGYLICGFRVVLMYRFEEELFLRSLQDYKIQSALLVPTLFSFFAKSTLIDKYDLSNLHEIASGGAPLSKEVGEAVAKRFHLPGIRQGYGLTETTSAILITPEGDDKPGAVGKVVPFFEAKVVDLDTGKTLGVNQRGELCVRGPMIMSGYVNNPEATNALIDKDG
notes: Expressed in HEK293T cells and used as cell lysate; also called Myc-SND1-NLuc; split-luc component

Tests used:
SND1-NLuc [1] = target: B4; assay: split-luciferase competition assay, HEK293T lysates
Procedure: (§1) Luciferase-based screening. Seed HEK293T cells on 3×15 cm dish at 18-24 hr before transfection with 7-8×10⁶ cells per dish targeting 70-80% confluence when start transfection. 20 μg of pCDNA3.1-SND1-NLuc, pCDNA3.1-CLuc-MTDH, or 2 μg of pCDNA3.1-NLuc-CLuc plasmids that described above were transfected to each dish. 72 hr after transfection the cells were lysed with 5 ml of luciferase lysis buffer (2 mM EDTA, 20 mM DTT, 10% glycerol, 1% Triton X-100, 25 mM Tris base, adjusted to pH7.8 with H₃PO₄) at 4° C. for 20 min. The protein lysates were centrifuged at 13,000 rpm for 10 min, and the supernatant were collected.
(§2) For small chemical compound screening, white, flat-bottom, solid 384-well plates were used. Compounds were added into each well as 0.1 μl of 10 mM DMSO solution (or same amount of DMSO, serve as control). The first and last columns were free, and MTDH wild type ([…]) or mutant ([…]) peptides were added as positive and negative controls right before screening. Same amount of MTDH-CLuc and SND1-NLuc were pre-mixed at 4° C. for 30 min to generate split-luc. 5 μl of split- or linked-luc was added into each well. […] The plates were incubated at 4° C. for 1 hr and luciferase activity at each well was measured.

[2] = target: T1, SND1 (endogenous, SCP28 breast cancer cell lysate) (human, UniProt Q7KZF4 2-910); assay: Co-IP competition, SCP28 lysate, anti-MTDH antibody, Western blot for SND1
T1 construct: Detected by Western blot after MTDH immunoprecipitation; also called Staphylococcal nuclease domain-containing 1
T1 sequence (looked up): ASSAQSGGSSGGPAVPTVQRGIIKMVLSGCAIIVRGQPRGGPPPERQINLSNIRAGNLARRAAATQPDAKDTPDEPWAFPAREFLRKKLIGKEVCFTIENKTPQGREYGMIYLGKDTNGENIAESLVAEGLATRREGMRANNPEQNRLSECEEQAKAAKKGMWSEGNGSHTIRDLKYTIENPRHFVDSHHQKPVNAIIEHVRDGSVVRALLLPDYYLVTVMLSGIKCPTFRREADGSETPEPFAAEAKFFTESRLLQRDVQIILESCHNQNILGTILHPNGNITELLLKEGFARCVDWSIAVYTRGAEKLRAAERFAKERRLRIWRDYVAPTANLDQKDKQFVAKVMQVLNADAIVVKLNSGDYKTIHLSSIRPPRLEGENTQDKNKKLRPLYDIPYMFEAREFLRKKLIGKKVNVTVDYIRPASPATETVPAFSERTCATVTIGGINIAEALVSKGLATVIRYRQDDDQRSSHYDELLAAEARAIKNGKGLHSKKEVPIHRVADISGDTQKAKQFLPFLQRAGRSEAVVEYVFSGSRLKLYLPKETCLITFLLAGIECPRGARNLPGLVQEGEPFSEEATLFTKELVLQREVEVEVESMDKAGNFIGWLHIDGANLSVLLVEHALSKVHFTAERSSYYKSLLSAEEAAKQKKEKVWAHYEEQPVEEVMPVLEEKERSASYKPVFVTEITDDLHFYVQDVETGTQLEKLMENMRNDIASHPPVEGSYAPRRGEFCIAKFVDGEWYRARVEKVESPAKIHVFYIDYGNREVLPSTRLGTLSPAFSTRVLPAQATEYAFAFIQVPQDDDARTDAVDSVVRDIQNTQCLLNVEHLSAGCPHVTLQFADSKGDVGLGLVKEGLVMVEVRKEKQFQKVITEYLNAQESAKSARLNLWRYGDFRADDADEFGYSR
Procedure: (§3) FIG. 10E, Schematic diagram of Co-IP based confirmation of MTDH-SND1 inhibitory compounds (left). SCP28 cells were lysed for IP assay.2 μg of MTDH antibody together with 500 μM of MTDH wild type (Pep-WT) or mutant (Pep-MT) peptides were added into each 1 ml of samples. Red star indicates wild type MTDH peptide competing off SND1 that binds to MTDH.
(§4) Co-immunoprecipitation assay (Co-IP), which is a commonly used standard test to determine protein-protein interaction, was next employed to validate the candidates. Lysates of breast cancer cell line SCP28, a single cell-derived subline from the MDA-MB-231 TNBC cell line²⁵, was immunoprecipitated with anti-MTDH antibody alone or together with inhibitors (FIG. 3F and FIG. 10E). The samples were then incubated with Protein-A/G beads to pull down MTDH, followed by Western blot analysis to detect SND1. In such co-TP experiment, MTDH-WT but not MTDH-MT peptide blocks MTDH-SND1 interaction (FIG. 10E). […] Using multiple screening and validation platforms, two classes of compounds, C26s and C32s, were obtained that inhibit MTDH-SND1 interaction.

[3] = target: T2, NLuc (firefly luciferase N-terminal fragment, 1-416aa) (UniProt P08659 1-416 = luciferase); assay: split-luciferase complementation, 293T cells
T2 construct: range 1-416; Fragment alone, without SND1
Procedure: as §1
(§5) For small chemical compound screening, white, flat-bottom, solid 384-well plates were used. Compounds were added into each well as 0.1 μl of 10 mM DMSO solution (or same amount of DMSO, serve as control). The first and last columns were free, and MTDH wild type ([…]) or mutant ([…]) peptides were added as positive and negative controls right before screening. Same amount of MTDH-CLuc and SND1-NLuc were pre-mixed at 4° C. for 30 min to generate split-luc. 5 μl of split- or linked-luc was added into each well. 15 μl of luciferase assay buffer (25 mM Glycylglycine pH 7.8, 15 mM K₃PO₄ pH 7.8, 15 mM MgSO₄, 4 mM EGTA, 2 mM ATP added just before use, 10 mM DTT added just before use and 1 mM D-Luciferin added just before use) was then added into each well to get a 20 μl reaction system with 50 μM of compounds (peptides) in each well. The plates were incubated at 4° C. for 1 hr and luciferase activity at each well was measured.

SND1-NLuc [4] = target: B4; assay: split-luciferase complementation, 293T cells
Procedure: as §1, §5

[5] = target: T1, SND1 (endogenous, SCP28 breast cancer …); assay: Co-IP from SCP28 lysate with 2 µg MTDH antibody
Procedure: as §3, §4

[6] = target: T3, CLuc (firefly luciferase C-terminal fragment, 398-550aa) (UniProt P08659 398-550 = luciferase); assay: split-luciferase complementation, 293T cells
T3 construct: Fragment alone, without MTDH
Procedure: as §1, §5

SND1-NLuc [7] = target: T4, SND1-NLuc; assay: split-luciferase assay (inhibition of SND1-NLuc/CLuc-MTDH interaction)
T4 chain: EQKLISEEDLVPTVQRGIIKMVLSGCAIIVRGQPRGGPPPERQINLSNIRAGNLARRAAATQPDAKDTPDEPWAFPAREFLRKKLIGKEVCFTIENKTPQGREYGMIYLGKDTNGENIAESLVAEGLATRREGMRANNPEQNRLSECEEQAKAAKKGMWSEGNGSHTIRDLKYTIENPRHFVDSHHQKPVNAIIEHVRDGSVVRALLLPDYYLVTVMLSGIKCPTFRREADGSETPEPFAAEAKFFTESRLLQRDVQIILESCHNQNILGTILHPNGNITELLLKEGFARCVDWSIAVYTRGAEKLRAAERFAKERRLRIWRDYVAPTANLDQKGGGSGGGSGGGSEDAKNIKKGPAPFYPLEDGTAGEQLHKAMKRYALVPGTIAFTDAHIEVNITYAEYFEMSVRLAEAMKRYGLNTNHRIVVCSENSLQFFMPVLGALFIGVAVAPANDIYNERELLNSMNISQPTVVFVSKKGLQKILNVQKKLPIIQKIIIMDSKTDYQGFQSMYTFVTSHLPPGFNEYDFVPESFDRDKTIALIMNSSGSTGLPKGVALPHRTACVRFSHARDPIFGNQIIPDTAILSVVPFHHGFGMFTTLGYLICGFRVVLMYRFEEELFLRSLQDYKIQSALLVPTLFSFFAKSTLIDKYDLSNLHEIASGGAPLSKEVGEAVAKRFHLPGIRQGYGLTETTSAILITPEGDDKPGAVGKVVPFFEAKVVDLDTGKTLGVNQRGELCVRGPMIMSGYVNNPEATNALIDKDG

SND1-NLuc [8] = target: B4; assay: split-luciferase competition assay, 50 µM peptide, competitor of CLuc-MTDH
Procedure: as §1, §2

B1: mutant MTDH (MTDH-MT) peptide (peptide)
peptide: PNSDANAPAEEAGNW
notes: also called Pep-MT; MTDH mutant peptide
- binding result (SND1-NLuc [1]): no binding (tested: 50 µM)
- binding result [2]: no binding (tested: 500 µM)

B2: CLuc-MTDH (other)
chain: MSGYVNNPEATNALIDKDGWLHSGDIAYWDEDEHFFIVDRLKSLIKYKGYQVAPAELESILLQHPNIFDAGVAGLPDDDAGELPAAVVVLEHGKTMTEKEIVDYVASQVTTAKKLRGGVVFVDEVPKGLTGKLDARKIREILIKAKKGGKSKLGGGSGGGSSSADPNSDWNAPAEEWGNWVDEYPYDVPDYA
notes: Expressed in HEK293T cells and used as cell lysate; also called CLuc-MTDH-HA; MTDH-CLuc
- binding result [3]: no binding
- binding result (SND1-NLuc [4]): binds

B3: MTDH (endogenous, SCP28 breast cancer cell lysate) (other, human, UniProt Q86UE4 1-582, looked up)
chain: MAARSWQDELAQQAEEGSARLREMLSVGLGFLRTELGLDLGLEPKRYPGWVILVGTGALGLLLLFLLGYGWAAACAGARKKRRSPPRKREEAAAVPAAAPDDLALLKNLRSEEQKKKNRKKLSEKPKPNGRTVEVAEGEAVRTPQSVTAKQPPEIDKKNEKSKKNKKKSKSDAKAVQNSSRHDGKEVDEGAWETKISHREKRQQRKRDKVLTDSGSLDSTIPGIENTITVTTEQLTTASFPVGSKKNKGDSHLNVQVSNFKSGKGDSTLQVSSGLNENLTVNGGGWNEKSVKLSSQISAGEEKWNSVSPASAGKRKTEPSAWSQDTGDANTNGKDWGRSWSDRSIFSGIGSTAEPVSQSTTSDYQWDVSRNQPYIDDEWSGLNGLSSADPNSDWNAPAEEWGNWVDEERASLLKSQEPIPDDQKVSDDDKEKGEGALPTGKSKKKKKKKKKQGEDNSTAQDTEELEKEIREDLPVNTSKTRPKQEKAFSLKTISTSDPAEVLVKNSQPIKTLPPATSTEPSVILSKSDSDKSSSQVPPILQETDKSKSNTKQNSVPPSQTKSETSWESPKQIKKKKKARRET
notes: Pulled down with anti-MTDH antibody and Protein-A/G beads; also called metadherin
- binding result [5]: binds

Binder: B4
- binding result [6]: no binding

B5: wild type MTDH (MTDH-WT) minimal peptide (peptide)
peptide: PNSDWNAPAEEWGNW
notes: also called MTDH-WT peptide; Pep-WT
- IC50 (SND1-NLuc [7]): 1200 nM
- binding result [2]: binds
- binding result (SND1-NLuc [8]): binds
